Reference: publication PMC7400510, “Molecular basis of the lipid-induced MucA-MucB dissociation in Pseudomonas aeruginosa” (Communications Biology, 2020)

How the values were obtained:
[1] = molecular target: T1, MucB (pET22b-MucB-6His) (P. aeruginosa, UniProt P38108 22-316); experiment: ITC
T1 chain: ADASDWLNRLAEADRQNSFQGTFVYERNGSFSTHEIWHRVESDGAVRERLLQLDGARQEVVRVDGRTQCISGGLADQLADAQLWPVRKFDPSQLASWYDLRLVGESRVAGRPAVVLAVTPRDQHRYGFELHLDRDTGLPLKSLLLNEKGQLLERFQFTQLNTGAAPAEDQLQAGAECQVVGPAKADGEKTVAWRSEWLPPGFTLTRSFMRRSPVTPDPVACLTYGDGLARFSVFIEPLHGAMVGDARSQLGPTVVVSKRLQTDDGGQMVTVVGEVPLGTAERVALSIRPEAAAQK

[2] = molecular target: T2, MucB (pET22b-MucB-6His) (P. aeruginosa, UniProt P38108 22-316); experiment: ITC; MucB (20 µM) in the sample cell titrated with MucA^peri (200 µM), 19 injections; 25 mM Tris–HCl (pH 7.5), 150 mM NaCl, 25 °C; details: both partners purified
T2 construct: source: E. coli BL21 (DE3), purified (Ni–NTA, Superdex-75)
T2 sequence: T1 chain

B1: periplasmic region of MucA (MucA^peri: residues 106–194), with His-tag (domain or fragment)
chain: YNQNDALPQMAQQGTTPQIALPQVKGPAVLAGYSEEQGAPQVITNSSSSDTRWHEQRLPIYLRQHVQQSAVSGTESALPYARAASLENR
notes: also called periplasmic domain of MucA; source: E. coli BL21 (DE3), purified (Ni–NTA, Superdex-75); not shown: His6, C-terminal, kept
Which Ka [1] does the source give for B1 here?
Its Ka is 633000 M⁻¹.

What about the Kd [2] of the same binder?
Its Kd is 1500 nM.
